Tests used:
human cancer cell lines = experiment: In vitro cytotoxicity toward cancer cells compared to cisplatin (MTT); format: cell-based; details: MTT 72 h
Experimental: The in vitro cytotoxicity of 1–3 and Au1a to human cancer cell lines (HeLa, NCI-H460, HCT116, A2780) and the cisplatin- and doxorubicin-resistant cancer cell lines (A2780cis and A2780adr), as well as normal human colon mucosal epithelial cell line (NCM460), non-tumorigenic immortalized liver cells (MIHA) and normal lung fibroblast cells (CCD-19Lu), was evaluated using a 3-(4,5-dimethyl-2-thiazolyl)-2,5-diphenyltetrazolium bromide (MTT) assay (Table 1; Fig. S5a ^†). […] The low toxicity of 1 was also found in experiments with non-tumorigenic liver L02 and gliocyte CHEM-5 cells (Table S5 ^†). […]
The gold content of the nanocomposites was determined by dissolving the nanocomposites in conc. […]
The content of DOX in the nanocomposites was measured as follows. […] The solution was then diluted and filtered, and the content of DOX in the nanocomposite was determined by UPLC with photodiode array detector using daunorubicin hydrochloride (3.6 µM) as the internal standard. […]
hydrochloride standard over the peak area of daunorubicin hydrochloride (3.6 µM) in the UPLC chromatograms of the doxorubicin hydrochloride standard spiked with daunorubicin hydrochloride (3.6 µM). The encapsulation efficiency of DOX by nanostructures of 1 was calculated by the equation: […]
which reflected the amount of blue formazan formed. IC50 values were then determined by CompuSyn S6 from three independent measurements. […]

[1] = In vivo biodistribution by ICP-MS in nude mice bearing HCT116 xenografts; details: single-dose i.v., 24 h post-treatment
From the text: Significant pulmonary hemorrhage in the alveoli and a thickening of alveolar walls were found. Also, apoptotic hepatocytes and swollen renal epithelial cells were found, leading to subsequent shrinkage of kidney tubules. […] The lower systemic toxicity of 1 can be explained by the lower accumulation of 1 in the organs of mice treated at its effective dosage, as compared to that of 3 and Au1a (Fig. S23 ^†). […] This can be attributable to the nanostructures of 1, which may lead to in vivo tumor accumulation by the EPR effect.[55] […]
point of tumor growth inhibition study, the mice treated with complex 1, 3 and Au1a, respectively, were sacrificed and tissues including liver, spleen, lung, kidney and heart were harvested. The tissues were digested with 10% HCl in concentrated HNO3 (0.1 g of tissue/1 mL). The solution mixture was heated at 60 °C for 15 h, and then diluted 50 times by ultra-pure water for ICP-MS analysis.
Determination of in vivo biodistribution of complex 1, 3 and Au1a by ICP-MS.
Nude mice bearing HCT116 xenografts were treated with 1 (13 mg/kg), or equal molar amount of Au1a (2 mg/kg) or 3 (2 mg/kg) through intravenous injection. After 24 h of the injection, the mice were sacrificed and tissues from tumor, liver, spleen, lung, kidney and heart were harvested. The tissues were digested with 10% HCl in concentrated HNO3 (0.1 g of tissue/1 mL). […]

With “[Au(TPP–COO–PEG5000–OCH3)]Cl [Compound 1]” the “times more cytotoxic than cisplatin” value (human cancer cell lines) was 5.1–76.9 times, the “higher accumulation in tumor compared to mice treated with 3” value ([1]; equal molar amount (1 13 mg kg^–1, 3 2 mg kg^–1)) was 2.0 fold and the “higher accumulation in tumor compared to mice treated with Au1a” value ([1]; equal molar amount (1 13 mg kg^–1, Au1a 2 mg kg^–1)) was 3.3 fold.
